Measurements published in patent US20240301052A1 (LANOVA MEDICINES DEVELOPMENT, published 2024).
Substitutions are numbered along the chain they refer to. Read-outs that look alike come from different tables or passages of the source. Each block holds one binder with its values, some of them ahead of it.

Experiments:
[1] = molecular target: T1, human SLC34A2 (human, UniProt O95436 1-690); assay: FACS, RMG-1 cells
T1 construct: whole, on cells; also called human solute carrier 34 A2; NaPi2b
T1 sequence (looked up): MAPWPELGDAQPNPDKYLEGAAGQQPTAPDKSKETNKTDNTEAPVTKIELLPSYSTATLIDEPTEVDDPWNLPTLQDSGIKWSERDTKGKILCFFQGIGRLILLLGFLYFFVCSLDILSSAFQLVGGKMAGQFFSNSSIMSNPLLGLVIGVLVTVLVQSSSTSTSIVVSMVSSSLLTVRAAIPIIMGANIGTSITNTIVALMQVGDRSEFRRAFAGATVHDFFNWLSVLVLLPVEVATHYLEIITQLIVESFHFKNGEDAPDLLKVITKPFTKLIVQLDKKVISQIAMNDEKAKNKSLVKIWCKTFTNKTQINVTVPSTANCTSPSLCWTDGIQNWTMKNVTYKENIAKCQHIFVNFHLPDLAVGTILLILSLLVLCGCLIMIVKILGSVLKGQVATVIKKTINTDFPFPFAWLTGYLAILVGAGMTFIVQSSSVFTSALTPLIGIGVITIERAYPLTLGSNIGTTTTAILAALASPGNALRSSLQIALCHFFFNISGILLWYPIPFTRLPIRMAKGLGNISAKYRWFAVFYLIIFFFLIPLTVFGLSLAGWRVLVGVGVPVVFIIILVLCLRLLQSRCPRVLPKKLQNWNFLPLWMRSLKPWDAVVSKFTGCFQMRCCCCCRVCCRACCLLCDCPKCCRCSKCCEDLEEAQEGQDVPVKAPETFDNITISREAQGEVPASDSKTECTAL
Protocol: (§1) In another testing, cell based binding of hu Abs on human SLC34A2 expressing cells were assessed using flow cytometry. Briefly, the HEK293/H_SLC34A2, OVCAR3 and RMG-1 cells were incubated with hu Abs. After incubation at 4° C. for 60 minutes, the cells were washed with FACS buffer twice, then stained with fluorescent conjugated secondary antibody at 4° C. for 30 minutes. After that the cells were washed twice and analyzed by flow cytometry.

[2] = molecular target: T1, human SLC34A2; assay: FACS, OVCAR3 cells
Protocol: The binding of these humanized antibodies to OVCAR3 cells was evaluated as described above, and the results are shown in FIG. 12A-D and Tables 16A-D.

[3] = molecular target: T1, human SLC34A2; assay: FACS, OVCAR3 cells; remark: listed apart in the source
Protocol: as §1

[4] = molecular target: T1, human SLC34A2; assay: cell-based or functional assay
[5] = molecular target: T1, human SLC34A2; assay: FACS, HEK293/human SLC34A2 cells
Protocol: as §1

[6] = molecular target: T2, Rhesus SLC34A2 (Rhesus, UniProt F7HDA3 1-690); assay: FACS, HEK293/Rhesus SLC34A2 cells
T2 construct: whole, on cells
T2 sequence: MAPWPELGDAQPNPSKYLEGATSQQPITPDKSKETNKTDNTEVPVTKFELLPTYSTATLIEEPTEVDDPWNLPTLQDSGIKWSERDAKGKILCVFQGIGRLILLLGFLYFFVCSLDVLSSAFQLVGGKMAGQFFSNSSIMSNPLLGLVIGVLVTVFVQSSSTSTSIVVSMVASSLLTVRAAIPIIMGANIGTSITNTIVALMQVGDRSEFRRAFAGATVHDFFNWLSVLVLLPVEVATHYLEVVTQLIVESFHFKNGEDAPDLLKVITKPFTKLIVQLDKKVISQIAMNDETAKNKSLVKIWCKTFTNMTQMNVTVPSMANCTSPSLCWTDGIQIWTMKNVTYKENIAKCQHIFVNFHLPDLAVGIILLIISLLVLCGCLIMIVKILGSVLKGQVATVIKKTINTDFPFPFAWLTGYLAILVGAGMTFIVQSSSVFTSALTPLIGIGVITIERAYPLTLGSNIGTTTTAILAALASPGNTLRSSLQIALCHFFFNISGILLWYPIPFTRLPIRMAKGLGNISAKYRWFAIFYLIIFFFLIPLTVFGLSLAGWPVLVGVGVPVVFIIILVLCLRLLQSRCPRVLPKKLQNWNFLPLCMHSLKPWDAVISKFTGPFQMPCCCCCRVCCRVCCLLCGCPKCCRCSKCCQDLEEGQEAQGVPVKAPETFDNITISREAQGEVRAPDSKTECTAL

[7] = molecular target: T1, human SLC34A2; assay: FACS, OVCAR3 cells; remark: listed apart in the source
[8] = molecular target: T1, human SLC34A2; assay: FACS, OVCAR3 cells; remark: listed apart in the source

B2: 30H9B8F9.p1.z6 hIgG1 (antibody, V domains shown)
VH: QVQLVQSGAEVKKPGASVKVSCKTSGYTFTTNNMHWVRQAPGQGLEWIGAIYPGSGATAYNQKFKGRVTMTADTSTSTVYMELSSLRSEDTAVYYCARGMYGHGAMDYWGQGTLVTVSS
VL: DIQLTQSPSFLSASVGDRVTITCKASQDVGTAVAWYQQKPGKSPKLLIYWATTRHSGVPDRFSGSGSGTEFTFTISSLQPEDFATYFCQQYSSNPLTFGQGTKLEIK
notes: humanized hIgG1
EC50 [1]: 1.78 nM | Top [1]: 10400 MFI | EC50 [2]: 1.62 nM | Top (MFI) [2]: 28400 MFI | EC50 [3]: 1.1 nM | ADCC reporter EC50 [4]: 1.25 nM | ADCC reporter Top (MFI) [4]: 135000 MFI | EC50 [5]: 1.94 nM | Top [5]: 33600 MFI | EC50 [6]: 1.1 nM | Top (MFI) [6]: 15100 MFI

B3: 30H9B8F9.p1.z9 hIgG1 (antibody, V domains shown)
VH: B2 VH with K12V, M70L, T74K, V79A, D90A
VL: B2 VL with S43A, D60S, F73L, F87Y
notes: humanized hIgG1
EC50 [1]: 1.4 nM | Top [1]: 11600 MFI | EC50 [2]: 1.59 nM | Top (MFI) [2]: 29400 MFI | EC50 [3]: 1.08 nM | ADCC reporter EC50 [4]: 1.53 nM | ADCC reporter Top (MFI) [4]: 145000 MFI | EC50 [5]: 1.81 nM | Top [5]: 34200 MFI | EC50 [6]: 0.9 nM | Top (MFI) [6]: 16300 MFI

B6: 91C9F1.p1.z6 hIgG1 (antibody, V domains shown)
VH: QVQLVQSGAEVKKPGSSVKVSCKTSGFFFTEYIIHWVRQAPGQGLEWIGGIIPNNDVTNYKQNFRGRVTLTADKSTSTAYMELSSLRSEDTAVYYCARWRNAYYSAMDSWGQGTTVTVSS
VL: DIQMTQSPSSLSTSVGDRVTITCTASQDVGTAVAWYQQKPGKSPKLLIYWASTRHTGVPERFSGSGSGTDFTLTISSLQPEDVATYFCQQYRTSPLTFGGGTKVEIK
notes: humanized hIgG1
EC50 [1]: 3.03 nM | Top [1]: 9560 MFI | EC50 [8]: 1.72 nM | Top (MFI) [8]: 36100 MFI | EC50 [3]: 2.86 nM | Top [3]: 20300 MFI | ADCC reporter EC50 [4]: 1.77 nM | ADCC reporter Top (MFI) [4]: 125000 MFI | EC50 [5]: 1.72 nM | Top [5]: 36100 MFI | EC50 [6]: 8.8 nM | Top (MFI) [6]: 8160 MFI

Continued, values first:

EC50 [1]: 0.73 nM | Top [1]: 10900 MFI | EC50 [2]: 1.03 nM | Top (MFI) [2]: 28400 MFI | EC50 [3]: 0.62 nM | ADCC reporter EC50 [4]: 0.96 nM | ADCC reporter Top (MFI) [4]: 143000 MFI | EC50 [5]: 1.05 nM | Top [5]: 33000 MFI | EC50 [6]: 0.8 nM | Top (MFI) [6]: 15600 MFI
B1: 30H9B8F9.p1.z13 hIgG1 (antibody, V domains shown)
VH: B2 VH with K12V, V20M, R38K, V68A, M70L, T74K, V79A, D90A, L114S
VL: B2 VL with S43A, D60S, F73L, F87Y
notes: humanized hIgG1

EC50 [1]: 36.2 nM | Top [1]: 11800 MFI | EC50 [7]: 13.5 nM | Top (MFI) [7]: 28200 MFI | EC50 [3]: 13.5 nM | ADCC reporter EC50 [4]: 0.95 nM | ADCC reporter Top (MFI) [4]: 116000 MFI | EC50 [5]: 4.8 nM | Top [5]: 35900 MFI | EC50 [6]: 3.9 nM | Top (MFI) [6]: 11100 MFI
B4: 63A11D5B4.p1.z5 hIgG1 (antibody, V domains shown)
VH: QVQLVQSGAEVKKPGASVKVSCKTSGYTFITYNMHWVRQAPGQGLEWIGAIYPGSGDTSYNQKFKGRVTMTADTSTSTVYMELSSLRSEDTAVYYCSISTIITTGAVDYWGQGTLVTVSS
VL: B6 VL with T13A, T24K, S43V, A51T, E60S, F87Y, R92S, T93R, S94I
notes: humanized hIgG1

EC50 [8]: 3.87 nM | Top (MFI) [8]: 36200 MFI
B5: 91C9F1.p1.z14 hIgG1 (antibody, V domains shown)
VH: QVQLVQSGAEVVKPGSSVKISCKTSGFFFTEYIIHWVKQSPGQGLEWIGGIIPNNDVTNYKQNFRGRATLTADKSTNTAYMELRSSLRSEDTAVYYCARWRNAYYSAMDSWGQGTTVTVSS
VL: B6 VL
notes: humanized hIgG1

EC50 [8]: 1.41 nM | Top (MFI) [8]: 31000 MFI
B7: 91C9F1.p1.z11 hIgG1 (antibody, V domains shown)
VH: B6 VH with K12V, A40S, V68A
VL: B6 VL with M4V, S63T, L78V, G100V
notes: humanized hIgG1

EC50 [8]: 2.95 nM | Top (MFI) [8]: 36900 MFI
B8: 91C9F1.p1.z5 hIgG1 (antibody, V domains shown)
VH: B6 VH
VL: B6 VL with T13A, S43V, E60S, F87Y
notes: humanized hIgG1
